According to publication PMC7973640:

Molecular target: PaxA T1-CDD di-domain construct (thiolation domain followed by the C-terminal docking domain of PaxA) (Xenorhabdus cabanillasii JM26)
Assay: SEC + NMR titration; analytical gel filtration and NMR titration experiments; complex in slow exchange on the NMR time scale; NMR at 293 K, samples in 50 mM sodium phosphate pH 6.5, 100 mM NaCl, 2 mM β-mercaptoethanol, 5% D2O

Substance “PaxB N-terminal docking domain (amino acids 1-30 of PaxB followed by a non-native tyrosine) (domain or fragment)” has a stoichiometry N of 1.
